The text below walks through data of PMC5094776, “The miR165/166 Mediated Regulatory Module Plays Critical Roles in ABA Homeostasis and Response in Arabidopsis thaliana”.

The target in the data set is T1, GST-PHB (PHABULOSA, HD-ZIPIII) (Arabidopsis thaliana, UniProt O04291 1-852).
T1 sequence: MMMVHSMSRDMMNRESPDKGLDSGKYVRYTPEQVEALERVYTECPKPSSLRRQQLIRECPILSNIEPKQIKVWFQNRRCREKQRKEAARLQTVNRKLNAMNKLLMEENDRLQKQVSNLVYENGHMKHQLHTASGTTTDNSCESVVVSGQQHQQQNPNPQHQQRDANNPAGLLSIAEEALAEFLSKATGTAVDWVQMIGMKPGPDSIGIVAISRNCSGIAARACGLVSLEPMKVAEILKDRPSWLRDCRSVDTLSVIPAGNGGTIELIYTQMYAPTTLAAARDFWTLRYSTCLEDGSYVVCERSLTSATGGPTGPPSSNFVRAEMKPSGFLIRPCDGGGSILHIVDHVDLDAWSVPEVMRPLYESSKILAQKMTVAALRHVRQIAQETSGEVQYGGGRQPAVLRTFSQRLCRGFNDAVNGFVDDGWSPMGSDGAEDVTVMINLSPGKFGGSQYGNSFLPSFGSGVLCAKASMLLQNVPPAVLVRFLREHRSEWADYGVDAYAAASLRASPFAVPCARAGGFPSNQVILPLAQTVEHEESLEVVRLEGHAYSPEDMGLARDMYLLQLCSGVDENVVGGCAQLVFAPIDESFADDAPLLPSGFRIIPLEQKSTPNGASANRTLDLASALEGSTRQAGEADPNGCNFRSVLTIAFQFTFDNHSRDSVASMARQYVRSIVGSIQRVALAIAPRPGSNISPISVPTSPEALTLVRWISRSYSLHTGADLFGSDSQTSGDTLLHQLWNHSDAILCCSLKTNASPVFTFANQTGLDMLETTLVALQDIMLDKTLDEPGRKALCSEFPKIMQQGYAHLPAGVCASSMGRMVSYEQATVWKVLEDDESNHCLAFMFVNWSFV
Description: EMSA; unlabeled self-competitor at 10x and 100x also tested (gel only); 20 mM Tris-HCl pH 7.5, 300 mM NaCl, 5 mM MgCl2, 0.1% NP-40, 0.5 mM DTT, 20-60 min, room temperature; 6% PAGE in Tris-glycine. The settings on record: protein: recombinant; tags: GST (N-terminal, pGEX4T-1); chain copies: 2; label: 32P; blunt.

B1: BG1 binding motif probe (dsDNA)
DNA 1: AGAAGTTTTGGTAATGATACTGAAACACATTTC
DNA 2: GAAATGTGTTTCAGTATCATTACCAAAACTTCT
Turning to B1, the binding result was “binds”.

B2: ABI4 binding motif probe (dsDNA)
DNA 1: TTAGCCGTTATGTAATGATTTATTCTAGTTTCA
DNA 2: TGAAACTAGAATAAATCATTACATAACGGCTAA
For the molecule B2, the binding result is listed as “binds”.
